According to paper PMC6378327, “Modes of Accessing Bicarbonate for the Regulation of Membrane Guanylate Cyclase (ROS-GC) in Retinal Rods and Cones” (eNeuro, 2019):

Molecular target: the molecule itself
Assay: SEC + other: gel electrophoresis without reducing agents; purified fragment in solution; molecular weight markers during FPLC elution (Superdex 200) and gel electrophoresis performed without reducing agents

B1: core catalytic domain fragment of bovine ROS-GC1 (G817-Y965) (domain or fragment)
chain: not shown
notes: bovine ROS-GC1 (retinal membrane guanylate cyclase 1), core catalytic domain, G817-Y965; numbers count on: the mature protein (according to Goraczniak et al., 1994); Cloned into the BglII/NcoI site of pET30Xa/LIC (Novagen); Residue numbers are on the mature protein, so they are shifted by the length of the signal peptide relative to the precursor entry; also called ROS-GC1 fragment; soluble …
B1 was tested, and the “stoichiometry N” value was 2.
